In the nanobody polyreactivity screen of Harvey et al. (2022):

Experiment: yeast display, Sf9 membrane polyspecificity reagent, FACS + sequencing; frameworks hold sequencing errors
How it was run: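 Polyreactivity labels are assigned by the sorting gate from which each nanobody was recovered. The gates were low and high (top ~1%), set on anti-HA fluorescence for expression and streptavidin fluorescence for reagent binding. Before sorting, galactose-induced (36–48 hours) yeast display cells were stained for 1 hour at 4 °C with 10% biotinylated, detergent-solubilized Sf9 membrane reagent.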

Sequence	polyreactivity (PSR sort gate)
QVQLVESGGGLVQAGGSLRLSSAASGSIFSSYAMGWYRQAPGKERELVAAISTGGSTYYADSVKGRFTISRDNAKNTVYLQMNSLKPEDTAVYYCAAGIMDLKLYFSSYDYWGQGTQVTVSS	low polyreactivity
QVQLVESGGGLVQAGGSLRLSCAASGLTLLKNAMGWYRQAPGKEREYADSVKGRFTISRDNAKNTVYLQMNSLKPEDTAVYYCAKDVNGGYFYYQYPAQYYYWGQGTQVTVSS	low polyreactivity
QVQHVESGGGLVQAGGSLRLRCAASGTTFSSNAMGWSRHAPGKERELVASITRGGSTSADSVKGRFTISRDNAKNTVYLQMNSLKPEDTAVYYCAKSVTGWRGLWYTPRNYYWGQGTQVTVSS	high polyreactivity
QVQLVESGGGLVQAGGSLRLSCAASGTIFVGYAMGWYRQAPGKERELVAAISWSGGRTYYADSVKGRFTISRDNAKNTVYLQMNSLKPEDTAVYYCAAPRYGGWRSYQKYDYWGQGTQVTVSS	high polyreactivity
QVQLVESGGGLVQAGGSLRLSCAASGFTFAFYAMGWYRQAPGKERELVAAISKNDGTTYYADSVKGRFTISRHTAKNTVYLLMNSLKPEDTAVYYCAAESCYPVYTYVSSGDYWGQGTQVTVSS	low polyreactivity
QVQLVESGGGLVQAGGSLRLSCAASGLTFYAYAMGWYRQAPVKERELVAAISVRGRSTYYADSVKGRFTISRDIAKNTVFLQMNSLKPEDTAVYYCAAEFYRVQNFQFYYWGQGTQVTVSS	high polyreactivity
QVQLVESGAGLVQAGGSLRLSCAASGFIFRGNTMGWYRQAPGKERELVASITRGGGRTYYADSVKGRFTISRDNAKNTVYLQMNSLKPEDTAVYYCAARTRSDNSYHGGEYWGQGTQVTVSS	high polyreactivity
QVQLVESGGGLVQAGGSLRLSCAASGFTFAANTMGWYRQAPGKERELVADISGRGDRTSYADSVKGRFTISRDNAKNTVYLQMNSLKPEDTAVYYCAVDIYYYSNVHYYYWGQGTQVTVSS	low polyreactivity
QVQLVESGGGLVQAGGSLRLSCAASGSIFNYYAMGWYRQAPGKERELVATITRGGSTYYADSVKGRFTISRDNAKNTVYLQMNRLKPEDTAVYYCAKVGRSTAYQNGYDYWGQGTQVTVSS	low polyreactivity
QVQLVESGGGLVQAGGSLRLSCAASGFTFKRYAMGWYRQAPGKERELVAAISWSGGSTYYADSVKGRFTISRDNAKNTVYLQMNSLKPEDTAVYYCNAVCRFSTRREYWGQGTQVTVSS	high polyreactivity
QVQLVESGGGLVQAGGSLRLSCAASGRTFGGYTMGWYRQAPGKERALVAAIRWSGGRTYYADSVKGRFTISRDNAKNTVYLQMNSLKPEDTAVYYCNARYVFPYYWGQGTQVTVSS	high polyreactivity
QVQLVESGGGLVQAGGSLRLSCGASGGTFVSNAMGWYRQAPGKERELVAAITSGCNTTYADSVKGRFTISRDNAKNTVYLQMNSLKPEDTAVYYCATDFEGSWIDARGTWYYVWFGYWGQGTQVTVSS	low polyreactivity
QVQLVESGGGLVQAGGSLRLSCAASGLTLSGYAMGWYRQAPGKERELVAAISSTGGSTYYADSVKGRFTISRDNAKNTVYLQMNSLKPEDTAVYYCAKGYSPTRVRLRYPRYDTYNHWGQGTQVTVSS	high polyreactivity
QVQLVESGGGLVQAGGSLRLTCAPSVRIFTIYDMGRYRQAPGKERELVATITYSSGSTSYADSVKGRFTISRDNAKNTVYLLMNSLKPEDTAVYYCAKKYYSGYGYWGQGTQVTVSS	low polyreactivity
QVQLVESGGGLVQAGGSLRLSCAASGRTFRLYAMGWYRQAPGKERELVAAITFRGGRTYYADSVKGRFTISRDNAKNTVYLQMNSLKPEYTAVYYCNAVTYSSPYRFDYWGQGTQVTVSS	low polyreactivity
QVQLVESGGGLVQAGGSLRLSCAASGSIFNAMGWYRQAPGKERELVAAITSGSSTYYADSVKGRFTISRDNAKNTVYLQMNSLKPEDTAVYYCAAGSQRRYYHTNWDSFNYWGQGTQVTVSS	low polyreactivity
QVQLVESGGGLVQSGGSLRLSCAASGLIIGLYAMGWYRQAPGTERELVAAISDNGARTYYADSVKGRFTISRDYAKYTVYLQMNSLKPEDTAVDYCARDQSYHYNYWGQGTQVTVSS	low polyreactivity
QVQLVESGGGLVQAGGSLRLSCADSGSIFAGNAMGWYRQAPGKERELVAAISRRGGSTYYADSVKGRFTISRDNAKNTVYLQMNSLKPEDTAVYYCNALLRYAYHAAYGYWGQGTQVTVSS	high polyreactivity
QVQLQESGGGLVQAGGSLRLSCAASGNIFPTVSMGWYRQAPGKEREFVVTIDPGSNTYYADSAKGRFTISRDNAKNTVYLQMNSPKPEDTAVYYCAVVFADWATYGYWGQGTQVTVSS	high polyreactivity
QVQLVESGGGLVQAAGSLRLSCAASGGTFGWYAKGWYRLAHGKEREFLPAIRYSDGNTYYADSVKRRFTISRDNAKNSVYLQMNSLKPEDSAVYYCAADYVYAYIDGEVAEFYYWGPGTQVTVSS	high polyreactivity
QVQLVESGGGLVQAGGSLRLSCAASGSTIPYYAMGWYRPAPGKERELVARIRWNGDSTYYADSVKGRFTISRDNAKNTVYLQMNSLKPEDTAVYYCARQGYTLYRTRYRYDYWGQGTQVTASS	high polyreactivity
QVQLVESGGGLVQAGGSLRLSCAASGRTFTNYAMGWYRQAPGKERELVAAISKRGGTTYYADSVKGRFTISRDNAKNTVYLQMNSLKPEDTAVYYCNKAKTAYRGQYDYWGQGTQVTVSS	high polyreactivity

Sequence	polyreactivity (PSR sort gate)
QVQLVESGGGLVQAGGSLRLSCAASGRIFKGYAMGWYRLAPGKERELVAAITSGGNTNYADSVKGRFTISRDNAKNTVYLQMNSLKPEDTAVYYCAARPRFVYSYPYYYWGQGTQVTVSS	high polyreactivity
QVQLVESGGGLVQAGGSLRLTCAASGRTFLLYAMGWYRQAPGKERELVAAITSRSGRTYYADSVKGRFTISRDNAKNTVYLQMNSLKPEDTAVYYCAAQGYAPQEYEYWGQGTQVTVSS	high polyreactivity
QFHLVESGGGLVQAGGSLRLSCAATGSIFYTNAMGWYRQPAGTDRELVASIRSRDRTKYADSVKWRFSISRVNAKNTVYLQMNSLKPEDTAVYYCAADRYWYGVHASIYYYWGHGTQVTVSS	high polyreactivity
QVQLVESGGGLVQAGGSLRLSCAASGRTFGRYAMGWYRQAPGKEREFVASMSRRGGTTYYADSVKGRFTISRDNEKNTVYLQMNSLNPEDTAVYYCNADRTVIYDYEYWGQGTQVTVSS	low polyreactivity
QVQLVESGGGLVQAGGSLRLSCAASGSSFYYYAMGWYRQAPGKERELVAAITSGDTTNYADSVKGRFTISRDNAKNTVYLQMNSLIPEDTAVYYCAVDLNTTAFYPEAATYLDEYWGQGTQVTVSS	low polyreactivity
QVQLVESGGCLVQAGGSLRLSCAASGSIFSLYAMGWYRQAPGKEWEFVASISRSGGITYYADSVKGRFTISRDNAKNTVYLQMNSLKPEDTAVYYCAAVGWVSYRRYDYWGPGTQVTVSS	high polyreactivity
QVQLVESGGGLVQAGGSLRLSCAASGSTFTPYGMGWYRQAPGKERELVAAITVSGGRTYYADSVKGRFTISRDNAKNTVYLQMNSLKPEDTAVYYCAAVYLRGDGEYDYWGQGTQVTVSS	low polyreactivity
QVQLVESGGGLVQAGGSLRLSCAASGSIFRWNAMGWYRQAPGKERELVAAITWRSSSTYYADSVKGRFTISRDNAKNTVYLQMNSLKPEDTAVYYCNAKRGVQTYANFYGSKYDYWGQGTQVTVSS	high polyreactivity
HVQLVESGGGLVQAGGSLRLSCAASGRILSRNAMGRYRPAPGKERELVAAISISGGSTYYADSVKGRFTISRDNAKNTVYLQRNSLKPEDTAVYYCNTAYYGYRKYDYWGQGTQVTVSS	high polyreactivity
QVQLVESGGGLVQAGGSLRLSCAASGFIFWYYAMGWYRQAPGKERELVAAITSRGGSTYYADSVKGRFTISSDNAKNTDYLQMNSLKPEDTAVYYCAAKFPSRFYSFVQYYYWGQGTQVTVSS	high polyreactivity
QVQLVESGGGLVQAGGSLRLSCAASGGIFYRYAMGWYRQAPGKEREFVASIDVSGGSTHYADSVKGRFTISRDNAKNTVDLQMNSLKPEDTAVHYCAARVYWRSSRYYYWGHGTQVTVSS	high polyreactivity
QVQLVESVGGLVQAGGSLRLSCAGSGSTFGRYTMGSSRQAPVKEREFVAAIRWSGGNTYYADTVKGRFTISRGKAKNTVYLQMNSLKTEDTAVFYCNRVYSTIGDYWGQGTQVTVSS	low polyreactivity
QVQLVESGGGLVQAGGSLRLSCAASGRTFFPYVMGWYRQAPGKERELVAAISNSGTSTYYADSVKGRFTISRDNAKNTVYLQMNSLKPEDTAVYYCAARRYVGLYYWGQGTQVTVSS	high polyreactivity
QVQLVESGGGLVQAGGSLRLSCAASGSTFSWYAMGWYRQAPGKERELVASISFSGGDTSYADSVKGRFTISRDNAKNTVYLQMNSLKPEDTAVYYCGKEYKYETDTKFDYWGQGTQVTVSS	low polyreactivity
QVQLVESGGGLVQAGGSLRLSCAASGFTFSPNAMGWYRQAPGKERELVAAIDWNGGSTYYADSVKGRFTISRDNAKNTVYLQMNSLKPEDTAVYYCNADWVYWQYLTSFVTFDYWGQGTQVTVSS	low polyreactivity
QVQLVESWGGLVQAGGSLRLSCAASGRTIEQYAMGWYRQAPGKERELVAAISGSGGSTFYADSVKGRFTISRDNAKNTVYLQMNSLKPEDTAVYYCNAPGDGYLYDHTYDYWGQGTQVTVSS	low polyreactivity
QVQLVESGGGLVQAGGSLRLSCPASGYIFYRNAMVWYRQAPGKERELVAAITYTGGRTYYADSVKGRFTISRDNAKNTVYLQMNSLNPEDTAVYYCNADGRVFVVRPYYDYEYWGQGTQVTVSS	low polyreactivity
QVQLVESGGGLVQAGGSLRLSCAASGLIFRWYDMGWYRQAPGKDRELVAAITRGGGTNYADSVKGRFTLSRDNAKNTVYLQMNSLKPEDTAVYYCAARLIKYGRAWTFGGYDYWGQGTQVSVSS	high polyreactivity
QVQLVESGGGLVQAGGSLRLSCAASGFTFSKYAMGWYRQAPGKERELVAAITSGDDTNYADSVKGRFTISRDNAKNTVYLQMNSLKPEDTAVYYCNAEYTVYYSYWAIGVDYWGQGTQVTVSS	high polyreactivity
QVQHEKSRGALVQAGGSLRLSCAASGSTVEKYTMGWYREAPGKVRELVAAISKSGGSTYYADSVKGRFTISRDNAMNTVYLQMNSLNPEDTAVDYCAALQYPRAGFDYWGQGTQVTVSS	high polyreactivity
QVQLVESGGGLVQAGGSLRLSCAASGFTFRSYVMGWYRQAPGKERELVASISSGGITKYADSVKGRFTISRDNAKNTVYLQMNSLKPEDTAVYYCNARTYSNTVLNYGLQYGYDYWGQGTQVTVSS	high polyreactivity
